In experiment [1] the target is Moniliophthora perniciosa necrosis- and ethylene-inducing protein 2 (MpNep2) (Moniliophthora perniciosa). The experiment in a line: dynamic light scattering; monomer 120 uM and dimer 45 uM in 20 mM phosphate, 80 mM NaCl, pH 7.4, 25°C.
For experiment [2] the target is unchanged. The experiment is described as follows: SEC; preparative Sephacryl S100 16/60 and analytical UFLC on Superdex 200 or 75, 0.7 mL/min; 20 mM phosphate pH 7.4, 80 mM NaCl; also at different ionic strengths and after 1 mM 2-mercaptoethanol. Background: SEC sorts molecules by how far they enter the pores of the column.

As for “Moniliophthora perniciosa necrosis- and ethylene-inducing protein 2 (MpNep2) (natural protein)”, the stoichiometry N in experiment [1] and in experiment [2] was 2 throughout.

These data come from paper PMC3454426.
